Results: paper PMC4898654 (Biochemistry, 2016)
Each block holds one molecule with its values, some of them ahead of it. Where no end group is shown, it is not given here.

Experiments:
Rev1-CT domain = settings: human RIR motifs; cited from earlier work
Polκ RIR (Homo sapiens) [1] = molecular target: Polκ RIR (Homo sapiens) (UniProt Q9UBT6); assay: intrinsic tryptophan fluorescence; settings: cited from earlier work
Polκ RIR (Homo sapiens) [2] = molecular target: Polκ RIR (Homo sapiens) (UniProt Q9UBT6); assay: SPR; settings: cited from earlier work
[3] = molecular target: T1, Human Rev1 C-terminal domain (Rev1-CT; residues 1158-1251) (human, UniProt Q9UBZ9 1158-1251); assay: SPR
T1 sequence (looked up): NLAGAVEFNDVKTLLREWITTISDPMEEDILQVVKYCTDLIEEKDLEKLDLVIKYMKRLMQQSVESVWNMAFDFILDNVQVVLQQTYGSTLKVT

yeast Rev7 = settings: unstructured C-terminal part of Pol32, purified proteins; cited from earlier work

Molecule: CEMSHKKSFFDKKRSER [Polκ-RIR]
affinity range of Rev1-CT interactions with RIR motifs (Rev1-CT domain): µM to mM affinities

Molecule: Rev1 CTD (from UniProt Q9UBZ9)
Kd (Polκ RIR (Homo sapiens) [1]): 300 nM
Kd (Polκ RIR (Homo sapiens) [2]): 7600 nM

Kd [3]: 1700 ± 600 nM
B1: Polκ-RIR peptide (residues 560-575) modified with an N-terminal cysteine residue (peptide)
peptide: EMSHKKSFFDKKRSER

B2: Pol32: subunit of yeast Polζ (homologue of human PolD3) (protein, UniProt P47110 1-350, looked up)
DNA polymerase delta subunit 3: MDQKASYFINEKLFTEVKPVLFTDLIHHLKIGPSMAKKLMFDYYKQTTNAKYNCVVICCYKDQTIKIIHDLSNIPQQDSIIDCFIYAFNPMDSFIPYYDIIDQKDCLTIKNSYELKVSESSKIIERTKTLEEKSKPLVRPTARSKTTPEETTGRKSKSKDMGLRSTALLAKMKKDRDDKETSRQNELRKRKEENLQKINKQNPEREAQMKELNNLFVEDDLDTEEVNGGSKPNSPKETDSNDKDKNNDDLEDLLETTAEDSLMDVPKIQQTKPSETEHSKEPKSEEEPSSFIDEDGYIVTKRPATSTPPRKPSPVVKRALSSSKKQETPSSNKRLKKQGTLESFFKRKAK
Rev7 - Pol32 interaction (yeast Rev7): direct interaction
